From the RNAGym collection of RNA variant scans (doi:10.1021/acssynbio.7b00057) come the findings set out here.

B1: Pistol ribozyme (parent)
chain: GGGUCGUUGUUCCAUAAUCGCGUGGAUAUGGCACGCAAGUUUCUACCGGGCACCGUAAAUGUCCGACUGGAGCCGUUCGGGCGGCUAUAAACAGACCUCAGGCCCGAAGCGUGGCGGCACCUGCCGCCGGUGGUAAAAAAGAUCGGAAGAGCACACGUCU

The series covers variants of B1. Nature of the series: aptazyme ON/OFF ratio, guanine; higher = stronger switching; co-transcriptional cleavage with and without guanine.
For the variant GGGUCGGACCGCUAUAAUCGCGUGGAUAUGGCACGCAAGUUUCUACCGGGCACCGUAAAUGUCCGACUGGAGCCGUUCGGGCGGCUAUAAACAGACCUCAGGCCCGAAGCGUGGCGGCACCUGCCGCCGGUGGUAAAAAAGAUCGGAAGAGCACACGUCU [U7G U8A G9C U10C U11G C13U], the “aptazyme ON/OFF ratio” value was 1.03.

In the case of GGGUCGCUAUUAUAUAAUCGCGUGGAUAUGGCACGCAAGUUUCUACCGGGCACCGUAAAUGUCCGACUGGAGCCGUUCGGGCGGCUAUAAACAGACCUCAGGCCCGAAGCGUGGCGGCACCUGCCGCCGGUGGUAAAAAAGAUCGGAAGAGCACACGUCU [U7C G9A C12A C13U], the “aptazyme ON/OFF ratio” value was determined as 1.25.

GGGUCGCCGACUUAUAAUCGCGUGGAUAUGGCACGCAAGUUUCUACCGGGCACCGUAAAUGUCCGACUGGAGCCGUUCGGGCGGCUAUAAACAGACCUCAGGCCCGAAGCGUGGCGGCACCUGCCGCCGGUGGUAAAAAAGAUCGGAAGAGCACACGUCU [U7C U8C U10A U11C C12U C13U]: the “aptazyme ON/OFF ratio” value is 1.07.

For the variant GGGUCGAAGCAACAUAAUCGCGUGGAUAUGGCACGCAAGUUUCUACCGGGCACCGUAAAUGUCCGACUGGAGCCGUUCGGGCGGCUAUAAACAGACCUCAGGCCCGAAGCGUGGCGGCACCUGCCGCCGGUGGUAAAAAAGAUCGGAAGAGCACACGUCU [U7A U8A U10C U11A C12A], the “aptazyme ON/OFF ratio” value worked out at 1.24.

For GGGUCGUGAAGGGAUAAUCGCGUGGAUAUGGCACGCAAGUUUCUACCGGGCACCGUAAAUGUCCGACUGGAGCCGUUCGGGCGGCUAUAAACAGACCUCAGGCCCGAAGCGUGGCGGCACCUGCCGCCGGUGGUAAAAAAGAUCGGAAGAGCACACGUCU [U8G G9A U10A U11G C12G C13G], the “aptazyme ON/OFF ratio” value came out at 1.05.

Take GGGUCGCGUCGGGAUAAUCGCGUGGAUAUGGCACGCAAGUUUCUACCGGGCACCGUAAAUGUCCGACUGGAGCCGUUCGGGCGGCUAUAAACAGACCUCAGGCCCGAAGCGUGGCGGCACCUGCCGCCGGUGGUAAAAAAGAUCGGAAGAGCACACGUCU [U7C U8G G9U U10C U11G C12G C13G]: the “aptazyme ON/OFF ratio” value worked out at 1.15.

For the variant GGGUCGGUGGUAAAUAAUCGCGUGGAUAUGGCACGCAAGUUUCUACCGGGCACCGUAAAUGUCCGACUGGAGCCGUUCGGGCGGCUAUAAACAGACCUCAGGCCCGAAGCGUGGCGGCACCUGCCGCCGGUGGUAAAAAAGAUCGGAAGAGCACACGUCU [U7G U10G C12A C13A], the “aptazyme ON/OFF ratio” value turned out to be 1.09.

For the variant GGGUCGGCCAGACAUAAUCGCGUGGAUAUGGCACGCAAGUUUCUACCGGGCACCGUAAAUGUCCGACUGGAGCCGUUCGGGCGGCUAUAAACAGACCUCAGGCCCGAAGCGUGGCGGCACCUGCCGCCGGUGGUAAAAAAGAUCGGAAGAGCACACGUCU [U7G U8C G9C U10A U11G C12A], the “aptazyme ON/OFF ratio” value is 1.08.

Take GGGUCGGGGGCUAAUAAUCGCGUGGAUAUGGCACGCAAGUUUCUACCGGGCACCGUAAAUGUCCGACUGGAGCCGUUCGGGCGGCUAUAAACAGACCUCAGGCCCGAAGCGUGGCGGCACCUGCCGCCGGUGGUAAAAAAGAUCGGAAGAGCACACGUCU [U7G U8G U10G U11C C12U C13A]: the “aptazyme ON/OFF ratio” value was 1.12.

With GGGUCGGAGCAAAAUAAUCGCGUGGAUAUGGCACGCAAGUUUCUACCGGGCACCGUAAAUGUCCGACUGGAGCCGUUCGGGCGGCUAUAAACAGACCUCAGGCCCGAAGCGUGGCGGCACCUGCCGCCGGUGGUAAAAAAGAUCGGAAGAGCACACGUCU [U7G U8A U10C U11A C12A C13A], the “aptazyme ON/OFF ratio” value turned out to be 1.49.

On to GGGUCGCGCAUGCAUAAUCGCGUGGAUAUGGCACGCAAGUUUCUACCGGGCACCGUAAAUGUCCGACUGGAGCCGUUCGGGCGGCUAUAAACAGACCUCAGGCCCGAAGCGUGGCGGCACCUGCCGCCGGUGGUAAAAAAGAUCGGAAGAGCACACGUCU [U7C U8G G9C U10A C12G], for which the “aptazyme ON/OFF ratio” value worked out at 1.14.

Turning to GGGUCGAUUCUUAAUAAUCGCGUGGAUAUGGCACGCAAGUUUCUACCGGGCACCGUAAAUGUCCGACUGGAGCCGUUCGGGCGGCUAUAAACAGACCUCAGGCCCGAAGCGUGGCGGCACCUGCCGCCGGUGGUAAAAAAGAUCGGAAGAGCACACGUCU [U7A G9U U10C C12U C13A], the “aptazyme ON/OFF ratio” value was 1.14.

With GGGUCGUUCAACGAUAAUCGCGUGGAUAUGGCACGCAAGUUUCUACCGGGCACCGUAAAUGUCCGACUGGAGCCGUUCGGGCGGCUAUAAACAGACCUCAGGCCCGAAGCGUGGCGGCACCUGCCGCCGGUGGUAAAAAAGAUCGGAAGAGCACACGUCU [G9C U10A U11A C13G], the “aptazyme ON/OFF ratio” value was 1.05.

On to GGGUCGCCUUACGAUAAUCGCGUGGAUAUGGCACGCAAGUUUCUACCGGGCACCGUAAAUGUCCGACUGGAGCCGUUCGGGCGGCUAUAAACAGACCUCAGGCCCGAAGCGUGGCGGCACCUGCCGCCGGUGGUAAAAAAGAUCGGAAGAGCACACGUCU [U7C U8C G9U U11A C13G], for which the “aptazyme ON/OFF ratio” value turned out to be 1.07.

Take GGGUCGAGAAGCUAUAAUCGCGUGGAUAUGGCACGCAAGUUUCUACCGGGCACCGUAAAUGUCCGACUGGAGCCGUUCGGGCGGCUAUAAACAGACCUCAGGCCCGAAGCGUGGCGGCACCUGCCGCCGGUGGUAAAAAAGAUCGGAAGAGCACACGUCU [U7A U8G G9A U10A U11G C13U]: the “aptazyme ON/OFF ratio” value is 1.09.

Take GGGUCGCAAUACUAUAAUCGCGUGGAUAUGGCACGCAAGUUUCUACCGGGCACCGUAAAUGUCCGACUGGAGCCGUUCGGGCGGCUAUAAACAGACCUCAGGCCCGAAGCGUGGCGGCACCUGCCGCCGGUGGUAAAAAAGAUCGGAAGAGCACACGUCU [U7C U8A G9A U11A C13U]: the “aptazyme ON/OFF ratio” value was found to be 1.14.

Turning to GGGUCGCACAAACAUAAUCGCGUGGAUAUGGCACGCAAGUUUCUACCGGGCACCGUAAAUGUCCGACUGGAGCCGUUCGGGCGGCUAUAAACAGACCUCAGGCCCGAAGCGUGGCGGCACCUGCCGCCGGUGGUAAAAAAGAUCGGAAGAGCACACGUCU [U7C U8A G9C U10A U11A C12A], the “aptazyme ON/OFF ratio” value worked out at 1.16.

As to GGGUCGCAGAUCAAUAAUCGCGUGGAUAUGGCACGCAAGUUUCUACCGGGCACCGUAAAUGUCCGACUGGAGCCGUUCGGGCGGCUAUAAACAGACCUCAGGCCCGAAGCGUGGCGGCACCUGCCGCCGGUGGUAAAAAAGAUCGGAAGAGCACACGUCU [U7C U8A U10A C13A], the “aptazyme ON/OFF ratio” value came out at 1.07.
